Experimental findings from the NTF2 design screens of Basanta et al. (2020) are described below.

A short description of this data set: protease stability score; higher = more stable; yeast display proteolysis, trypsin and chymotrypsin.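 Also: relative to predicted unfolded state with 0 unfolded-like and 1 meaning tenfold more protease.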
Sequence “DDREEELQHLMELILFLLVTGNEEIWMRMADPDVKSRISIGDKQETYHGRETVARYMIHERHFYKNIQVKFDDVQVQGDKVIVILTFHWNGREIEVIHTFIVINGKLTSWEVRFIHR” came in with a protease stability score of 1.42.
On to “DDREEELRKMTELMLKAEQTGDEDHWMHLADPHVRVIVNGREFIGREEWARHHEEHRRKVKNIRIHVRIRDSEVQGDKLILDTELELRIGDKTIIRDVEINMTIINGRLRSLEIRIK”, for which the protease stability score came out at 1.17.
Next, “DDREEHAKELVDLFQKVMLTGDFKTLEELIDPNYRLHVNGQDVHGMERVIRHIFHMRFQDVKVKRIDHQGNKIDMDVRSIVNVDGRLHEHEIQLIALKVDGRWTVKSLEVH”: 1.48.
“DDREEKIKRAWETFVHNVRTGDEDSNEELADPNVKVLFNGREFHGMEQLSKFFKHLRVHDFVLKDIRVVGDKVHVEGLVDGEINGKRELTTMHMVFIKFNGRWIIQSVEFK” had a protease stability score of 1.53.
Sequence “DDREKDSKREVKEFLEMFITGDEERWSKMADPNVRLHFDGVESHGREEALRIMRLLLEQFKNLKVTDVQLTSIEIQGEKALIRTRIHTEVNGKEDSLDVILFATKFDGRWIINSIEIR” gave a protease stability score of 1.1.
Then “DDREKETQEFFERWVEAFITGDEHDLHEMLDPHARIHLIIGDKKEDLHGRESAVEVMKRIDHKHEFRIRHLWIFDGRIHVDVKLTGHFDGRTYQHDVHINIKIVDGKIHSIQIEWR”, with 2.22.
Consider “DDREKFWKELAKEWFKSLITGDEDSLRKLLDPDVRTIVGDWHIHGMEEVLKFWLELRISDHDSKRIIVINGVNLNDIRSNGNVNGVERETRVELIIEVVDGRVRRVEFRMK”, for which the protease stability score worked out at 2.01.
On to “DDREKLWHRLVELEKELWLTGDFEDFHSLADPNVQLIVHFDGQEVHYHGRESVTMALKILREQLGADHFEPKSVHYQGNKMQTSMILFVNGREFEFRLTLFVIDGRLKSHHIEWK”, for which the protease stability score worked out at 1.48.
In the case of “DDREKYLTKLMELFIEHWRTGDEEAFLEYFDPHVRIEHIFNGQETRRHGRELFSILLTHEWLFFKNVRIHWKRSEVQGEKTVIHMELHVGDKSLKVRIHLDVVDGRVRSVNIEIE”, the protease stability score worked out at 0.548.
As for “DDRERATRELLKLLWDAMKTGDEELFYKLADPDTRMIINGRELHGMEEVSRILLELLTHMRLKNITIRDIDVQGDKVDVHGELHGEVGDKSHTFETHIIILKVNGKWVLRSYIIR”, the protease stability score was determined as 1.55.
“DDRERDLRELFKRLHEVLETGNEEEMTELIDPHARRTVGDKKIHGRELIAKHLVHEVLRYDHWHLEMHDWRFQGEKIELHGNFRIEVDGKQIVIDTRLTATKVDGRWRITEIRII” showed a protease stability score of 0.743.
Take “DDRERDSREAQEILREILLTGDFKTLYELADPHYRHNWDGRTIHGMETIVKLFLDLGMEIRDMRFRHLEIQGDFIHLDVDINGRINGKEKNVKIRVHARKIDGRWVLHSSERD”: the protease stability score was determined as 1.38.
Then “DDRERERHRFLRELHESLETGDERELTRMLDPHARWVVGDKQHHGRETLTKFVSEVALRADHFHIEISRVREQGEFIDIDVRVILIIGDKVITIDQRLINLKVDGRWFLHERIVH”, with 1.05; and “DDRERESEEALRLFIETLETGDEHWLKRLMDPNARLHQGEKTIHGMDIFSTWVVEARLKHYHLERVHIQGDKMDVESHVDGHVNGQRLKVQLIFHSLKIDGRWLVKHIIVH”, with 1.4.
Then “DDRERESKEAVEFFLHAVDTGDFDRIREMLDPHMRVEIDGQEFHGRERALDLIHKEMFDLGVDRIRIEIHDMELVDGRVEVDVHVDVNGRIIRSEYIMKKIDGRWRIHSIKRR”, with 1.98; and “DDRERLTKLMSDDFIFSMLTGDEHFMHELIDPHARFLFNGQVHHGWKTMEFWREHLGIDNIHLQIRISDLEIQGDKATVRIDGEVKQGDKSFRTRFIIKVDKIDGRWVIHELRIIVL”, with 1.07.
“DDRERQAESMMHLWLEVLLTGDEDRLMKLADPNTRHHVNGVDAHGRENIKRVAKEFDEQMRIHRVEIRQVRIIGDKTEVDGRVDVEVNGRRRDTETHLRVIVIDGRIHEVHLIIR” registered a protease stability score of 0.725.
In turn, “DDRESIAEAVIRHMVEDFRTGNEDNMKRLFDPNTQLRYGDKTHHGWEDVVELLYHDIKHFGIKHVSVDRISVIGEKIHIDMRVEVGDKELTLHFTVDKINGKWKFESVERR” had a protease stability score of 0.849.
Sequence “DDRHEENKEITRRQFELFETGDEEILHHLADPHVRLRIDGQHNHGREELERSLRELRKELGANVLILRRIRVIGDKMEVEGEFDYNGRNFHATFRFNVIDGRLHSMSIEIR” displayed a protease stability score of 0.832.
In the case of “DDRIRQVVEEWWKAVETNDPDKAKENVDKDVRVEVGDKQFRGSETLEKRIRDEKDHARVVVRMQSVSVHGDTVDVTYNVVVEVNGNPLRFKAQAFFRARNGRMQSIQFSFSKEDKKRVDG”, the protease stability score was 1.78.
“DDRKEMSEEASEIFLHLLATGDERTERKLLDPHVRLIIGDKHLHGREEFVRFKHEEMRDLGVTNVEVREKDVKVYDGKIELHGHFNVNGKWVEIHVIAEKFNGRWILKRVNFH” returned a protease stability score of 0.875.
In turn, “DDRKKEAHELFEFLLDVFRTGDEKSTEELLDPHTRNVIGDKHYHGRDVWVTFMKKFKNAKVHFNHLEVQGDKVTFDITFEIGDKTHRMRFFLEKYDGRWFIKEIQVD” had a protease stability score of 1.44.
“DDRKKEAQRILELFLKIWETGDEEELLKLLDPNVKLHIGDKNIHGMEEATRILTENVREIRTHIVHKRVHIQGDKVELEGELRIHVNGREESNRVHYELIVVNGKVKAIHVHLE” yielded a protease stability score of 1.16.
As for “DDRSEHAIHAFYEWWERFLTGDEKRLYELADPNTRLHVNGQRIHGMEEIMERILDLLKRVKNMRVDFDVRDVELQGDKIILRIEIILKYNGQKVRIDVHIISRKINGRWFLEQEREE”, the protease stability score was 0.558.
“DDRYRLVEHMSRHFFENWLTGDFDRLVELADPTVRSHFEYGDKEILNIGMEEHVKMERHWREKMGANHLFLDDVRIQGNKAHIHGQLDVGDKHNRARLELNIVDGRIKEIYIEIR” displayed a protease stability score of 0.018.
Sequence “DDSAKWTEIALKIKSHDSDTGNEEKIRRLLDPNVRIEINGQEIHGRDKISKWLSEIRIQIEHVDTERYELQGNKAIVDGRMHIKVSYGDKEMHFDIKFEIEVHKVDGQWLIHSERII” displayed a protease stability score of 0.754.
Regarding “DDSDEHTKRATDELRHNLRTGDEERILKLVDPNARIDINGVKVIGWHMVEELVRKFWEEMRVEELEIHDMKVYGDKAIVDGYVEQRQGNKFIYIKTEIIKVKIDGRWILTELRFR”, the protease stability score is 0.57.
Sequence “DDSDQANKIMLEVLRRKLDTGDEDSIRKLADPHARIVIGDKTIHGMDEHTNELRHMLELWGVDRVELHIRHVEKQGDKLRVDGELHFNGVSVRVIFLHEKINGRWFMRHTEIR” had a protease stability score of 0.984.
Then “DDSEEDALRILELLSDSMETGNWRLVSELLDPHVRLEVGDKTWVGMEEMKRLANQIRIHVHRVKFHHIDNFNGRVRVDGHIHGEIIVGDKIYRFRTRIEIDAVKINGQWVIEEMRIG”, with 1.61; and “DDSEEHAEEVVRELSESLRTGDEKSVDRLLDPNVKFIINGVEYVGRELFLELFKKTLEEIRIESIEVTHIDIQGEKVRLETKEHAIINGKRFQFKTEVIMRKVNGRWEIQELRFE”, with 1.98.
“DDSEHWARRFIHLLKRSLETGDEHLNKELADPHARIEVNGRELHGREDFSETLVRMGFNHVHITDFDVQGDKIELHIETDVGDKKIQVEFIVEKVNGRWLNRSMHIRIH”: the protease stability score is 0.832.
Next, “DDSERILRWFWNVLAESIETGDEEVMKELFDPNTRIHVNGQDHIGMEHRTRLASEMRITLYRVDLKRIHEVDGRIVLHIEVETHGTINGRLEHSKVRVQIIVSKIDGKWRMHQVEVK”: 1.38; “DDSHKKLKHAFELLLHALRTGDEDLLKELIDPEVRILFNGKIFHGREWWEHLLRHIRFKDIHIKNIDIQGDKLRVDSRLHIIIDGRHVDFEAEFYIVKVDGRWFTEEIVIK”: 2.21.
The sequence “DDSQDIAKTMVDIITKNSLTGDEENFEHLVDPDARLTVNGVELHGREDVVRWMKHARIHDTRVRHIRVQGNKIEVDSESRVDINGKENEMKFKLIFIKVNGQWHIRDIEIR” registered a protease stability score of 2.13.
